# In patent US8741844B2, “Use of mutated antithrombins for treating or preventing coagulation disorders” (Universite Paris-Sud XI, priority 2007, dated 2014):
# Changes are numbered by the printed parent chain. Names and notes keep the numbering of the source.
# B1: AT-N135Q-ΔR393-S394: human antithrombin with deletion of positions 393 and 394 and substitution at 135 by Glutamine (protein, listed as Homo sapiens)
# chain: HGSPVDICTAKPRDIPMNPMCIYRSPEKKATEDEGSEQKIPEATNRRVWELSKANSRFATTFYQHLADSKNDNDNIFLSPLSISTAFAMTKLGACNDTLQQLMEVFKFDTISEKTSDQIHFFFAKLNCRLYRKAQKSSKLVSANRLFGDKSLTFNETYQDISELVYGAKLQPLDFKENAEQSRAAINKWVSNKTEGRITDVIPSEAINELTVLVLVNTIYFKGLWKSKFSPENTRKELFYKADGESCSASMMYQEGKFRYRRVAEGTQVLELPFKGDDITMVLILPKPEKSLAKVEKELTPEVLQEWLDELEEMMLVVHMPRFRIEDGFSLKEQLQDMGLVDLFSPEKSKLPGIVAEGRDDLYVSDAFHKAFLEVNEEGSEAAASTAVVIAGLNPNRVTFKANRPFLVFIREVPLNTIIFMGRVANPCVK
# B2: AT-ΔR393-S394: human antithrombin with deletion of the amino acids at positions 393 and 394 (protein, listed as Homo sapiens)
# chain: B1 chain with Q135N
# B3: AT-N135Q-ΔS394: human antithrombin with deletion of position 394 and substitution at 135 by Glutamine (protein, listed as Homo sapiens)
# chain: HGSPVDICTAKPRDIPMNPMCIYRSPEKKATEDEGSEQKIPEATNRRVWELSKANSRFATTFYQHLADSKNDNDNIFLSPLSISTAFAMTKLGACNDTLQQLMEVFKFDTISEKTSDQIHFFFAKLNCRLYRKAQKSSKLVSANRLFGDKSLTFNETYQDISELVYGAKLQPLDFKENAEQSRAAINKWVSNKTEGRITDVIPSEAINELTVLVLVNTIYFKGLWKSKFSPENTRKELFYKADGESCSASMMYQEGKFRYRRVAEGTQVLELPFKGDDITMVLILPKPEKSLAKVEKELTPEVLQEWLDELEEMMLVVHMPRFRIEDGFSLKEQLQDMGLVDLFSPEKSKLPGIVAEGRDDLYVSDAFHKAFLEVNEEGSEAAASTAVVIAGRLNPNRVTFKANRPFLVFIREVPLNTIIFMGRVANPCVK
# B4: AT-ΔR393: human antithrombin with deletion of the amino acid at position 393 (protein, listed as Homo sapiens)
# chain: B3 chain with Q135N, R393S
# B5: AT-ΔS394: human antithrombin with deletion of the amino acid at position 394 (protein, listed as Homo sapiens)
# chain: B3 chain with Q135N
# B6: AT-Pro394: human antithrombin with insertion of a Proline between positions 393 and 394 (protein, listed as Homo sapiens)
# chain: HGSPVDICTAKPRDIPMNPMCIYRSPEKKATEDEGSEQKIPEATNRRVWELSKANSRFATTFYQHLADSKNDNDNIFLSPLSISTAFAMTKLGACNDTLQQLMEVFKFDTISEKTSDQIHFFFAKLNCRLYRKANKSSKLVSANRLFGDKSLTFNETYQDISELVYGAKLQPLDFKENAEQSRAAINKWVSNKTEGRITDVIPSEAINELTVLVLVNTIYFKGLWKSKFSPENTRKELFYKADGESCSASMMYQEGKFRYRRVAEGTQVLELPFKGDDITMVLILPKPEKSLAKVEKELTPEVLQEWLDELEEMMLVVHMPRFRIEDGFSLKEQLQDMGLVDLFSPEKSKLPGIVAEGRDDLYVSDAFHKAFLEVNEEGSEAAASTAVVIAGRPSLNPNRVTFKANRPFLVFIREVPLNTIIFMGRVANPCVK
# Molecular target: T1, factor Xa (Homo sapiens, UniProt P00742)
# T1 construct: purchased Kordia
# T1 sequence (P00742 235-488 limits assumed): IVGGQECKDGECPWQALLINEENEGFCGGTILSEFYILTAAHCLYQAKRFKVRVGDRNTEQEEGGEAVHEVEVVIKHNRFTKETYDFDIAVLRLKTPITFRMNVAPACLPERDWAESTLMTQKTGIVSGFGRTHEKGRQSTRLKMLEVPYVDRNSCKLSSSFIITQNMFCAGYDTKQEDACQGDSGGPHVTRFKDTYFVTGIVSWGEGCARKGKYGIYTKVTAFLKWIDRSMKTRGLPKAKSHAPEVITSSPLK
# T1 sequence (P00742 41-179 partner limits assumed): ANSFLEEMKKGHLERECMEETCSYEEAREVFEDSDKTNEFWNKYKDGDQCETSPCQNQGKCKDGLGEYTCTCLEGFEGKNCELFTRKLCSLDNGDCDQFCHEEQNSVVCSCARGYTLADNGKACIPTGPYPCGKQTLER
# Assay: Kinetic assay of factor Xa inhibition by antithrombins in a purified system (chromogenic substrate, continuous or discontinuous)
# Assay type: biochemical
# Settings: with or without pentasaccharide; compared with plasma / wild type antithrombin
# Experimental: Briefly, factor Xa is incubated with an excess of tested antithrombins (corresponding to plasma antithrombin, or wild type antithrombin or mutated antithrombins and varying in each assay realized) in the presence or absence of pentasaccharide (Fondaparinux sodique, Arixtra®, GlaxoSmithKline) and the factor Xa residual activity is measured as a function of time. The pentasaccharide is added in excess in the reaction media so that every tested antithrombin is bound to the pentasaccharide. In the absence of pentasaccharide, polybrene is added in order to neutralize any sulfated glycosaminoglycan that may be present in the reaction media. The residual factor Xa activity is measured as the increase in absorbance at 405 nm resulting from cleavage of the chromogenic substrate (S2765 or S2222, Chromogenix) using a microplate reader (Dynatech MR 5000). The analysis of the data is performed using the GraphPad Prism version 3 software. Absorbance recording is continuous or discontinuous according to the expected inhibition rate constant (kon).
# The inhibition rate constant (kon) is the second order rate constant given in M^−1·s^−1 which define the velocity of stable complex formation between protease and antithrombin (higher is the kon value, faster will the complex be established).
# When the expected kon is lower than 10^4 M^−1·s^−1 the discontinuous method is used. Factor Xa (0.2 to 1 μM, or 0.1 to 1 μM) is incubated with tested antithrombins (0.2 to 10 μM, or 1 to 10 μM) in the presence of pentasaccharide (10 to 100 μM) or polybrene (100 μg/ml) in a final volume of 10 μl for 10 seconds to 5 hours, or 10 seconds to 24 hours. At the end of this incubation period, 190 μl of kinetic buffer containing 200 μM substrate is added and absorbance at 405 nm is recorded.
# The kinetic rate constant (k) is estimated by fitting the substrate hydrolysis initial rate curve to equation (1) using non-linear regression with v0 and v∞ being the substrate hydrolysis rate at time to or too respectively. […] (1)
# The inhibition rate constant (kon) is calculated from the rate constant (k) using equation (2) where AT is the tested antithrombin concentration. k=AT·kon (2)
# When the expected kon is higher than 10^4 M^−1·s^−1′ the continuous method is used. The tested antithrombin (0.01 to 1 μM, or 0.1 to 1 μM) is incubated with the substrate (200 μM) in the presence of pentasaccharide or polybrene in a final volume of 100 μL, or 190 μl, and the reaction is started by addition of 100 μL, or 10 μL, of factor Xa (2 nM or 10 nM). The rate constant (k) is obtained by fitting the substrate hydrolysis curve to equation (3) or (3′) using non-linear regression analysis where A0 is the absorbance at t0, and vi and vs are respectively the initial and final rates of substrate hydrolysis in the absence of tested antithrombin. A405=A0+vi·(1−exp(−k·t))/k. (3) Equation (3′) is also used, particularly in presence of plasma. A405=A0+vs*t+(vi−vs)*(1−exp(−k·t))/k. (3′)
# The inhibition rate constant (kon) is calculated from the kinetic constant (k) using equation (4) that takes into account the competitive effect of the substrate, with S being the initial substrate concentration, Km, the Michaelis constant for factor Xa-substrate interaction, AT the tested antithrombin concentration. k=(kon/(1+S/Km))·[AT] (4)
# Mutated antithrombins and wild type AT inhibitory activity are measured in the same conditions and compared with plasma AT inhibitory activity.
row,Molecule,factor Xa inhibitory activity
1,B1,negligible
2,B2,negligible
3,B3,negligible
4,B4,negligible
5,B5,negligible
6,B6,negligible

# Tested on: pentasaccharide bound murine antithrombin (plasma anti-Xa activity)
# Assay: Anti factor Xa assay in mouse plasma supplemented with Fondaparinux
# Assay type: biochemical
# Settings: not given
# Experimental: During the animal experimentation (see detailed protocol below), human mutated antithrombins compete with murine antithrombin for their binding to the pentasaccharide. Thus, preliminary in vitro assays are performed to determine the human mutated antithrombin concentration necessary to compete with the murine antithrombin present in mouse plasma supplemented with Fondaparinux.
# These experiments are performed as described in section II-b, using mouse plasma instead of human plasma.
row,Molecule,effect on anti-Xa activity of pentasaccharide contained in mouse plasma
1,B1,significant decrease
2,B2,significant decrease
3,B3,significant decrease
4,B4,significant decrease
5,B5,significant decrease
6,B6,significant decrease
